This note sets out measurements from patent US20100120695A1 (University of Pennsylvania, published 2010).

Square brackets hold non-standard residues; d marks the D form. Ends that are not written are not given here. AEEA = NCCOCCOCC(=O)O Bounds are passed on as bounds.

Data set [1] concerns the target integrin αVβ3 on human platelets (human, UniProt P06756 31-1048; P05106 27-788). Briefly: cell-based or functional assay.
The target in a further data set is T1, αV-TM-coum (coumarin label (site not stated)).
T1 peptide: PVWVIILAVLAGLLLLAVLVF
Put plainly: analytical ultracentrifugation, equilibrium sedimentation, heterodimer, 1:1 mixture in 5 mM C14-betaine micelles.

Data set [2] deals with the molecule itself. Put plainly: analytical ultracentrifugation, equilibrium sedimentation, homodimer, 5 mM C14-betaine micelles.
Experimental: (§1) Equilibrium sedimentation was used primarily to determine the association state of the peptides, but also to provide a rough estimate of the heterodimeric association constants. […] Peptides were co-dissolved in CF₃CH₂OH (Sigma-Aldrich, St. Louis, Mo.) and C14-betaine (3-(N,N-dimethylmyristyl-ammonio)propanesulfonate; Sigma-Aldrich, St. Louis, Mo.). […] The final concentration of C-14 betaine is 5 mM in the samples. Samples were prepared in a total peptide concentration of 50 μM (in case of heterodimer formation, a 1:1 mixture was prepared) and incubated overnight. Data at three measurement speeds (40, 45, and 50 KRPM for αIIb peptides and 30, 35, and 40 KRPM for the αv peptides) were analyzed by global curve-fitting of radial concentration gradients (measured using optical absorption) (FIG. 8a-8f) to the sedimentation equilibrium equation for monomer-dimer equilibria among the peptides included in the solution. […] Aqueous solution molar extinction coefficients at 280 nm were calculated using the program Sednterp. […] These coefficients were multiplied by the molar detergent concentration to provide mole ratio concentration units.
(§2) Ultracentrifugation data (FIG. 8) were first collected for the individual peptides.
In data set [3] the target is T2, fluorescein-5-isothiourea-tagged αIIb-TM (fluorescein-5-isothiourea (FITC) attached via an ε-aminohexanoic acid linker to the N-terminus).
T2 construct: also called FITC-αIIb-TM; αIIb-TM-FITC
T2 peptide: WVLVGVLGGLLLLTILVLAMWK
Briefly: analytical ultracentrifugation, equilibrium sedimentation, heterodimer, 1:1 mixture in 5 mM C14-betaine micelles.
Experimental: as §1, §2

Chain of integrin αVβ3 on human platelets (P06756 31-1048, chain 1 of 2): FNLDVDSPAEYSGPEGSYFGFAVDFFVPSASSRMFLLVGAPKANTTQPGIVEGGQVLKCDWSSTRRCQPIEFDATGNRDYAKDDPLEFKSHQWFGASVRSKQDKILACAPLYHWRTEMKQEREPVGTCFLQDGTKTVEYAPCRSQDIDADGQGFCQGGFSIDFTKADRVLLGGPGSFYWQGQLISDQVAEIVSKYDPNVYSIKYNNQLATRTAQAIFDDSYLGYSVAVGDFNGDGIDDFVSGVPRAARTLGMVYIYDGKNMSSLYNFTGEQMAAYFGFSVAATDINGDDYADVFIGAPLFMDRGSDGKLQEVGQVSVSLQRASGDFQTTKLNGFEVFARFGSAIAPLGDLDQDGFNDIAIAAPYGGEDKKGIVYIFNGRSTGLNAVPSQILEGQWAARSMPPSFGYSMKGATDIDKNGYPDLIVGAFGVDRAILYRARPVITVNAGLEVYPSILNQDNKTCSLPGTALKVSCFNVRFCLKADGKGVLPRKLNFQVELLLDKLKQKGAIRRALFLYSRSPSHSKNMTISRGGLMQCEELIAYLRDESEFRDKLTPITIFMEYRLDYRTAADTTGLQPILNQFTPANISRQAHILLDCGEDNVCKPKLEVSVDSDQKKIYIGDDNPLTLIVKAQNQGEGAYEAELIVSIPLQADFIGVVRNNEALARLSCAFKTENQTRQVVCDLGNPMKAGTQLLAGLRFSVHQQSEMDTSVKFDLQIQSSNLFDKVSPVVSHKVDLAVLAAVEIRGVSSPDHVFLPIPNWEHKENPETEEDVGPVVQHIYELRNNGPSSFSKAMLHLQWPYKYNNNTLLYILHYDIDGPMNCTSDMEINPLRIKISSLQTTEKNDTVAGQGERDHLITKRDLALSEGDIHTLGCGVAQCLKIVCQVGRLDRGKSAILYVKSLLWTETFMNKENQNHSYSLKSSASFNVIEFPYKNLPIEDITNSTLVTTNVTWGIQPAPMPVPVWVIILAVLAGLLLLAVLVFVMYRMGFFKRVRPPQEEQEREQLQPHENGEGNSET
Chain of integrin αVβ3 on human platelets (P05106 27-788, chain 2 of 2): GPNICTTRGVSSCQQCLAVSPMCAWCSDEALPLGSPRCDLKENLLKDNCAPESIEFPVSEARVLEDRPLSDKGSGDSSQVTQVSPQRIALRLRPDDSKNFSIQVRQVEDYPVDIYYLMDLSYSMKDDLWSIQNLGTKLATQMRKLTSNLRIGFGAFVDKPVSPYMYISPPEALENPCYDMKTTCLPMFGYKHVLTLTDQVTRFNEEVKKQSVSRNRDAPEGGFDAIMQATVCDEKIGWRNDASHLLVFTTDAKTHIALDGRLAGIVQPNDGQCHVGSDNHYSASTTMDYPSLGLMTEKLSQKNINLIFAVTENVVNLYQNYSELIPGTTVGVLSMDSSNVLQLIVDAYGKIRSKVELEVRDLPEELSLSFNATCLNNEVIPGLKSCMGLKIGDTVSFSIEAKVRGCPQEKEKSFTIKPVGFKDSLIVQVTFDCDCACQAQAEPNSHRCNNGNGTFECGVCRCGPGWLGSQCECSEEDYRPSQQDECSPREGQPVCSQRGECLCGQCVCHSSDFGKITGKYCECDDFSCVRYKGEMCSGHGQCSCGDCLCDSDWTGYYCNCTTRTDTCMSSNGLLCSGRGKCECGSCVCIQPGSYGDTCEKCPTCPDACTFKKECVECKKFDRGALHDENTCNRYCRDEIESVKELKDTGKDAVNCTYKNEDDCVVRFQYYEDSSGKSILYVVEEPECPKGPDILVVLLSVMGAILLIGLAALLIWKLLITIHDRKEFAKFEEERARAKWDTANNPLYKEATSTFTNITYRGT
Experimental for αV-TM-coum: as §1, §2

B1: anti-αV polypeptide (designed binder)
peptide: [AEEA]AYVFILLSFILGTLLGFLVMFWA
For B1, the “fold decrease in potency in inducing platelet adhesion to immobilized osteopontin” value in data set [1] is ~10 fold. In the data set with αV-TM-coum, the “Dimerization pKdiss” value was > 2 pKdiss (mole ratio units).

B2: αIIb-TM polypeptide (peptide)
peptide: WVLVGVLGGLLLLTILVLAMWK
Consider B2, for which the “Dimerization pKdiss” value in data set [2] was 1.8 pKdiss (mole ratio units).

B3: Anti-αIIb (FITC-labeled) (designed binder)
peptide: KKAYVMLLPFFIGLLLGLIFGGAFWGPARHLKK
modifications: also: FITC-labeled, site not given here
Take B3: in data set [2], the “Dimerization pKdiss” value was 2.3 pKdiss (mole ratio units).

B4: anti-αIIb polypeptide (designed binder)
peptide: B3 peptide
notes: also called anti-am
For B4, the “Dimerization pKdiss” value in data set [3] was 2.6 pKdiss (mole ratio units).

B5: Anti-αV(coumarin-labeled) (designed binder)
peptide: AYVFILLSFILGTLLGFLVMFWA
modifications: also: coumarin-labeled, site not given here
On to B5, for which the “Dimerization pKdiss” value in data set [2] was 1.4 pKdiss (mole ratio units).

B6: αV-TM (peptide)
peptide: PVWVIILAVLAGLLLLAVLVF
As to B6, in data set [2], the “Dimerization pKdiss” value was 0.7 pKdiss (mole ratio units).
